The values below come from patent US20100254975A1 (Amgen, published 2010).

Assay [1] deals with T1, human alpha4beta7 (human, UniProt P13612 34-1032; P26010 20-798). The assay is described as follows: cell-based or functional assay.
In the next assay the target is a4(Q878R)b7 (human) (UniProt P13612). The assay is described as follows: FACS on transfected 293 cells, 1 microG/ml, PE anti-human IgG.
Another assay deals with a4(V824A)b7 (human) (UniProt P13612). The assay is described as above.
Another assay concerns the target a4b7(E97V) (human) (UniProt P13612). The description is as above.
The target of a further assay is a4b7(G629S) (human) (UniProt P13612). Described as above.
A further assay has as its target a4b7(R213S) (human) (UniProt P13612). The description is as above.
Assay [2] deals with T1, human alpha4beta7. The assay is described as above. The text has this:
Point mutant constructs representing amino acid altering SNPs (a4b7(E97V); a4b7(R213S); a4b7(G629S; a4(V824A)b7; a4(Q878R)b7) in the extracellular domains of both alpha4 and beta7 were generated. Each point mutant construct was transfected to 293 cells along with the wild-type partner expression construct. Transfected 293 cells were first stained with 1 microG/ml of human IgG or anti-alpha4beta7 antibody, washed with PBS, and the stained with phycoerytherin conjugated secondary antibody goat-anti human IgG. After washing with PBS, cells were analyzed by fluorescence activated cell sorting, for example, with a FACSCalibur™ (BD Biosciences, San Jose Calif.).

Assay [3] deals with T1, human alpha4beta7. The assay is described as follows: FACS, biotinylated antibody on human CD4+CD45RA- memory T cells. On the procedure: Human peripheral blood mononuclear cells (PBMC; fresh or frozen and thawed, for example in phosphate buffered saline with 2% FBS) are washed and resuspended in HEPES buffer (30 mM HEPES+[…]) with 1% BSA, with or without 1 mM MnCl₂ (depending on the experiment; Mn²⁺ is necessary for MAdCAM-1 binding) and plated into 96 well plates (10⁶cells/well). Cells are incubated with 10 microG/ml human IgG for 30 minutes on ice to block nonspecific binding. Cells are then incubated with serial dilutions of biotinylated anti-alpha4beta7 antibodies in 96 well plates for one hour on ice, followed by addition of 1:100 dilution of streptavidin-phycoerythrin (PE; Jackson ImmunoResearch Laboratories Inc., West Grove, Pa.), 4 microL CD3-Pacific Blue, CD4-PerCP-Cy5.5 and CD45RA-fluorescein isothiocyanate (FITC) (BD Biosciences, San Jose Calif.) for a final volume of 100 microL, and incubated for another hour on ice. Cells were washed twice with HEPES buffer (with or without MnCl₂, correspondingly) and then fixed in 200 microL HEPES buffer plus 0.5% paraformaldehyde (again, with or without MnCl₂, correspondingly). The percentage of positive alpha4beta7 antibody binding CD4+CD45RA-memory T cells is determined using a fluorescence activated cell sorter (FACS), for example, a BD™ LSR II benchtop flow cytometer (BD Biosciences, San Jose Calif.).
Background: Flow cytometry measures light scatter and fluorescence of single cells or particles in a stream.

Assay [4] has as its target T1, human alpha4beta7. The assay is described as follows: FACS competition, blocks biotinylated MAdCAM-1-Fc binding to human CD4+CD45RA- memory T cells. Here is the method: PBMC (fresh or frozen as described previously) are washed and resuspended in HEPES buffer (30 mM HEPES+[…]) with 1% BSA and 1 mM MnCl. to a final concentration of 10⁷cells/ml. Cells are blocked as described previously; after blocking, cells are incubated with a serial dilution of anti-alpha4beta7 antibody (or appropriate control) in 96 well plates for 30 minutes on ice, and then with 0.3 microG/ml biotinylated MAdCAM-1-Fc protein for another one hour.
After two washes in HEPES buffer with 1 mM MnCl, cells are treated with 1:100 dilution of streptavidin-PE, 4 microL CD3-Pacific Blue, CD4-PerCP-Cy5.5 and CD45RA-FITC as described previously, in a final volume of 100 microL. After one hour incubation on ice, cells are washed twice with HEPES buffer with 1 mM MnCl and then fixed in 200 microL buffer plus 0.5% paraformaldehyde. The percentage of positive MAdCAM-1-Fc binding CD4+CD45RA-memory T cells is determined by fluorescence activated cell sorter (FACS) analysis, as described previously.

The term EC50 denotes the concentration needed to bring the measured effect to its halfway point. Broadly, the IC50 is the concentration at which inhibition is half-maximal. A high value points to a need for much substance.

Changes are numbered by the printed parent chain.

a4(V824A)b7 (human), sequence (P13612 34-1032 V824A, chain 1 of 2): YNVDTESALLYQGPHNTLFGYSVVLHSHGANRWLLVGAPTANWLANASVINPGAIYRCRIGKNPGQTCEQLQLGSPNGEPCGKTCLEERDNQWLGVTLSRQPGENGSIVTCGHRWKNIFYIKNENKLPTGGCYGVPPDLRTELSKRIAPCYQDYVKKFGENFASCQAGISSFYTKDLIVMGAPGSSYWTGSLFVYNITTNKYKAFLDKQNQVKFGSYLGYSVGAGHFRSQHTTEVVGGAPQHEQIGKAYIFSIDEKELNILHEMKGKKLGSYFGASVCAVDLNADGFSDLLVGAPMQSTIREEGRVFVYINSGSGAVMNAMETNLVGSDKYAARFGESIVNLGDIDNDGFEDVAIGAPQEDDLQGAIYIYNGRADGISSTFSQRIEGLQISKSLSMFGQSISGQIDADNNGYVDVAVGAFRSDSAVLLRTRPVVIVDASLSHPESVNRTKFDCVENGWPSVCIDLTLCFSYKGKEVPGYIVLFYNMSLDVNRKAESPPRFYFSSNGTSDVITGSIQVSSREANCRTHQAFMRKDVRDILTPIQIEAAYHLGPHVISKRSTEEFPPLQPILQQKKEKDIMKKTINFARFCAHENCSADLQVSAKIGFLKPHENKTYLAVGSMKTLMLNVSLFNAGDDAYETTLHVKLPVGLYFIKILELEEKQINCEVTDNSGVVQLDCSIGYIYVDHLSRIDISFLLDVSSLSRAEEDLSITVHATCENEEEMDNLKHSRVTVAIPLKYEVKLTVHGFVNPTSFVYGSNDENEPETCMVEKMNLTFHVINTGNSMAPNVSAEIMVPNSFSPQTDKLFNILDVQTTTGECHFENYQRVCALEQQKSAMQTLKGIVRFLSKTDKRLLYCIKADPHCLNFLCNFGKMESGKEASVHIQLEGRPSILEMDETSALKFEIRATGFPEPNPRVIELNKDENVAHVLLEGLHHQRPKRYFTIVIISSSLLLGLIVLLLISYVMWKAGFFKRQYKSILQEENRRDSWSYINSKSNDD
a4(V824A)b7 (human), sequence (P26010 20-798, chain 2 of 2, further chain): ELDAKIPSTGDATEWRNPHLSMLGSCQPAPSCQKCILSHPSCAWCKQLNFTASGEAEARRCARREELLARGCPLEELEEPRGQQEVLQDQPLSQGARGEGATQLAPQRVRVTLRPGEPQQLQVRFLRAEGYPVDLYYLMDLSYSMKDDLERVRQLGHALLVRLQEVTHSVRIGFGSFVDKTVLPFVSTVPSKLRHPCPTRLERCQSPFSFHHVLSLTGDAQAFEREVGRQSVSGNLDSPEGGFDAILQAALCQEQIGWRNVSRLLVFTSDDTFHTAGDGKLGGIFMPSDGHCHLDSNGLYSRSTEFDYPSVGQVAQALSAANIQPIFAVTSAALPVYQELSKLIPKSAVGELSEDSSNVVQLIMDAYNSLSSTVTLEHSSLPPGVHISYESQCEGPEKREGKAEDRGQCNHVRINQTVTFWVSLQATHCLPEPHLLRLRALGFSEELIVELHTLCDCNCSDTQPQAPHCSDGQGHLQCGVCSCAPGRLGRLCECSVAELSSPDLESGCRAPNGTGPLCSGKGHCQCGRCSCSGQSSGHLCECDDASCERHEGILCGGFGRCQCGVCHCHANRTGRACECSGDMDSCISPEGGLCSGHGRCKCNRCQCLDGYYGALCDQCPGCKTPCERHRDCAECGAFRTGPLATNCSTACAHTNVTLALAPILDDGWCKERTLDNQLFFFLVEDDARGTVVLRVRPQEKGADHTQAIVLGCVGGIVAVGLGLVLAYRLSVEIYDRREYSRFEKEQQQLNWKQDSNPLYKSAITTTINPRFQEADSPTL
a4b7(R213S) (human), sequence (P13612 34-1032, chain 1 of 2): as the sequence (P13612 34-1032 V824A, chain 1 of 2) above, with A791V counted along it
a4b7(R213S) (human), sequence (P26010 20-798 R213S, chain 2 of 2, further chain): as the sequence (P26010 20-798, chain 2 of 2, further chain) above, with R194S counted along it
T1 sequence (P13612 34-1032, chain 1 of 2): as the sequence (P13612 34-1032 V824A, chain 1 of 2) above, with A791V counted along it
T1 sequence (P26010 20-798, chain 2 of 2): as the sequence (P26010 20-798, chain 2 of 2, further chain) above
a4(Q878R)b7 (human), sequence (P13612 34-1032, chain 1 of 2): as the sequence (P13612 34-1032 V824A, chain 1 of 2) above, with A791V counted along it
a4(Q878R)b7 (human), sequence (P26010 20-798, chain 2 of 2, further chain): as the sequence (P26010 20-798, chain 2 of 2, further chain) above
a4b7(E97V) (human), sequence (P13612 34-1032, chain 1 of 2): as the sequence (P13612 34-1032 V824A, chain 1 of 2) above, with A791V counted along it
a4b7(E97V) (human), sequence (P26010 20-798 E97V, chain 2 of 2, further chain): as the sequence (P26010 20-798, chain 2 of 2, further chain) above, with E78V counted along it
a4b7(G629S) (human), sequence (P13612 34-1032, chain 1 of 2): as the sequence (P13612 34-1032 V824A, chain 1 of 2) above, with A791V counted along it
a4b7(G629S) (human), sequence (P26010 20-798 G629S, chain 2 of 2, further chain): as the sequence (P26010 20-798, chain 2 of 2, further chain) above, with G610S counted along it

B1: 27G8 (antibody, V domains shown)
VH: EVQLVESGGGLVQPGGSLRLSCAASGFTFSSYWMSWVRQASGKGLEWVANIKQDGSEKYYVDSVKGRFTISRDNAKNSLYLQMNSLRAEDTAVYYCAREGGYDWNYADYYGMDVWGQGTTVTVSS
VL: QSVLTQPPSVSEAPRQRVTISCSGSNSNIGNNPVNWYQLFPGRAPKLLIYHDDLLPSGVSDRFSGSRSGTSASLAISGLQSEDETDYYCTAWDDSLNGWVFGGGTKLTVL
notes: Fully human monoclonal from XenoMouse (human IgG2 or IgG4); lambda light chain; PE-conjugated in the cynomolgus study; also called 27G8L; 27G8H
For the molecule B1, the “HUT78 Adhesion IC50” value with human alpha4beta7 [1] was determined as 14.9 ng/mL. The fluorescence staining intensity (geometric mean) with a4(Q878R)b7 (human) worked out at 58; with a4(V824A)b7 (human), 88; with a4b7(E97V) (human) it was 116; with a4b7(G629S) (human) it was 68; with a4b7(R213S) (human) it was 59; with human alpha4beta7 [2] it was 102. Moreover, it took 6.3 ng/mL to reach a half-maximal effect with human alpha4beta7 [3] (EC50). Also, the IC50 in the assay with human alpha4beta7 [4] turned out to be 8.7 ng/mL.

B2: 19G6 (antibody, V domains shown)
VH: QVQLVESGGDLVKPGGSLRLSCAASGFTFSDYYMSWIRQAPGKGLEWISYISSSGSTMYYADSVKGRFTISRVNAKNSLYLQMNSLRAEDTAVYYCARDRSSGLVSFDYWGQGTLVTVSS
VL: DIQMTQSPSSLSASVGDRVTISCQASQDINTYLNWYQQKPGKVPKLLIYDASNLETGVPSRFSGSGSGTDFTFTISGLQPEDIATYYCQQFDNLPITFGQGTRLEIK
notes: Fully human monoclonal from XenoMouse (human IgG2 or IgG4); kappa light chain; also called 19G6K; 19G6H
Turning to B2, the “HUT78 Adhesion IC50” value with human alpha4beta7 [1] stood at 12.2 ng/mL. The fluorescence staining intensity (geometric mean) with a4(Q878R)b7 (human) came to 46; with a4(V824A)b7 (human), 67; with a4b7(E97V) (human) it was 108; in the assay with a4b7(G629S) (human) it was 59; with a4b7(R213S) (human), 46; with human alpha4beta7 [2] it was 94. Besides, in the assay with human alpha4beta7 [3], a half-maximal response (EC50) required 32.9 ng/mL. In the assay with human alpha4beta7 [4], this molecule gave an IC50 of 103 ng/mL.

B3: 22B2 (antibody, V domains shown)
VH: EVQLVQSGAEVKEPGESLKISCKGSGYIFTSYWIAWVRQLPGKGLEWMGIIDPNDSDTRYSPSFQGQVTISADKSIHTAYLQWSSLKASDTAMYYCATHRLWLGTLPGGFYIWGQGTMVTVSS
VL: DVQMTQSPSSLSASVGDRVTITCQASQDITDYLNWYQQKPGKAPKLLIYDTSNLEAGVPSRFSGSGSGTDFTFTISSLQPEDIATYYCQQYDILPYSFGQGTDLEIK
notes: Fully human monoclonal from XenoMouse (human IgG2 or IgG4); kappa light chain; also called 22B2K; 22B2H
Regarding B3, the “HUT78 Adhesion IC50” value with human alpha4beta7 [1] is 3.7 ng/mL. For the same molecule, the fluorescence staining intensity (geometric mean) with a4(Q878R)b7 (human) worked out at 58; in the assay with a4(V824A)b7 (human), 85; with a4b7(E97V) (human) it was 108; with a4b7(G629S) (human), 65; in the assay with a4b7(R213S) (human), 58; in the assay with human alpha4beta7 [2], 97. The EC50 with human alpha4beta7 [3] was 5.1 ng/mL. The same molecule returned an IC50 in the assay with human alpha4beta7 [4] of 23.2 ng/mL.

B4: 26H3 (antibody, V domains shown)
VH: EVQLVQSGAEVKKPGESLKISCKGSGYSFTGYWIGWVRQMPGKGLEWMGIIYPYDSDTRYSPSFQGQVTISADKSINTAYLQWSSLKASDTAMFYCASHRLWLGEFPGPLNIWGQGTMVTVSS
VL: B3 VL with V2I, T30S, D31N, T51A, A56T, S76N, Y87F, I93N, Y96C, D103K
notes: Fully human monoclonal from XenoMouse (human IgG2 or IgG4); kappa light chain; also called 26H3K; 26H3H
On to B4, for which, in the assay with human alpha4beta7 [1], the “HUT78 Adhesion IC50” value is 8.9 ng/mL. Further, the “fluorescence staining intensity (geometric mean)” value with human alpha4beta7 [2] was found to be 93. Moreover, it took 9.3 ng/mL to reach a half-maximal effect with human alpha4beta7 [3] (EC50). Besides, the concentration for half-maximal inhibition (IC50) in the assay with human alpha4beta7 [4] stood at 14.1 ng/mL.

B5: 1A10 (antibody, V domains shown)
VH: QVQLVQSGAEVKKPGASVKVSCKVSGYTLNDLSMHWVRQAPGKGLEWMGGFDPAEGKIISAQKFQDRVTMTDDTSTDTAYMELSSLRSEDSAVYYCATLDFSSWFDPWGQGTLVTVSS
VL: DIQMTQSPSSVSASVGDRVTITCRASQGVSSWLAWYQQKPGMAPKLLIYAASILQSGVPSRFSGSGSGTDFTLTISSLQPEDFATYYCQQANSFPWTFGQGTKVEIK
notes: Fully human monoclonal from XenoMouse XG2kl or XG4kl mice (human IgG2 or IgG4); kappa light chain; also called 1A10K; 1A10H
B5: the “HUT78 Adhesion IC50” value with human alpha4beta7 [1] worked out at 6.1 ng/mL. The fluorescence staining intensity (geometric mean) is 70 in the assay with a4(Q878R)b7 (human); 102 in the assay with a4(V824A)b7 (human); 135 with a4b7(E97V) (human); 80 with a4b7(G629S) (human); 31 in the assay with a4b7(R213S) (human); 122 in the assay with human alpha4beta7 [2]. Also, a half-maximal response with human alpha4beta7 [3] (EC50) required 4.9 ng/mL. Besides, the IC50 in the assay with human alpha4beta7 [4] is 6.2 ng/mL.

B6: 3A5 (antibody, V domains shown)
VH: B5 VH
VL: B5 VL with S30I, K103N
notes: Fully human monoclonal from XenoMouse (human IgG2 or IgG4); kappa light chain; also called 3A5K; 3A5H
Turning to B6, in the assay with human alpha4beta7 [1], the “HUT78 Adhesion IC50” value is 7.5 ng/mL. For the same molecule, the fluorescence staining intensity (geometric mean) in the assay with a4(Q878R)b7 (human) stood at 71; with a4(V824A)b7 (human), 110; in the assay with a4b7(E97V) (human) it was 135; with a4b7(G629S) (human), 80; in the assay with a4b7(R213S) (human) it was 31; with human alpha4beta7 [2] it was 124. The same molecule showed an EC50 with human alpha4beta7 [3] of 5.6 ng/mL. In the assay with human alpha4beta7 [4], this molecule came in with a half-maximal inhibitory concentration (IC50) of 6.2 ng/mL.

B7: 26G2 (antibody, V domains shown)
VH: QVQLVESGGGLVKPGGSLRLSCAASGFTFSDYYMSWIRQAPGKGLEWVSYISSIGSAIHYADSVKGRFTISRDNAKNSLYLQMNSLRAEDTAVYYCAREYSSGWAYFDYWGQGTLVTVSS
VL: DIQMTQSPSSVSASVGDRVTITCRASQDISSWLAWYQQKPGTAPKVLIYSASSLQNGVPSRFSGRGSGTDFALTISSLQPEDFATYYCQQADSFPWTFGRGTKVEIK
notes: Fully human monoclonal from XenoMouse (human IgG2 or IgG4); kappa light chain; also called 26G2k; 26G2K
As to B7, the “HUT78 Adhesion IC50” value with human alpha4beta7 [1] came out at 6.9 ng/mL. Moreover, the fluorescence staining intensity (geometric mean) came out at 58 in the assay with a4(Q878R)b7 (human); 86 in the assay with a4(V824A)b7 (human); 113 in the assay with a4b7(E97V) (human); 64 in the assay with a4b7(G629S) (human); 38 with a4b7(R213S) (human); 99 with human alpha4beta7 [2]. The EC50 with human alpha4beta7 [3] turned out to be 32.6 ng/mL. In addition, the IC50 in the assay with human alpha4beta7 [4] came to 99.6 ng/mL.

B8: 25C9 (antibody, V domains shown)
VH: B7 VH with S30N, I54S
VL: B7 VL with Q38R, T42K, N56S, R65S, A72T, R100Q
notes: Fully human monoclonal from XenoMouse (human IgG2 or IgG4); kappa light chain; also called 25C9k; 25C9K
Turning to B8, the “HUT78 Adhesion IC50” value in the assay with human alpha4beta7 [1] was found to be 13.7 ng/mL. Further, the fluorescence staining intensity (geometric mean) with a4(Q878R)b7 (human) came to 51; with a4(V824A)b7 (human), 77; with a4b7(E97V) (human), 106; in the assay with a4b7(G629S) (human), 59; with a4b7(R213S) (human), 33; with human alpha4beta7 [2], 96. This molecule displayed a half-maximal inhibitory concentration (IC50) in the assay with human alpha4beta7 [4] of 77.6 ng/mL.
